Measurements taken from patent US12077763B2, “RNA-based control of powdery mildew” (Greenlight Biosciences, Inc., priority 2021, dated 2024).

Test system: E. necator
Experiment: Leaf disc assay, dry inoculum (settling tower), decrease in disease severity / hyphal growth (Example 2)
Conditions: decrease in disease severity (hyphal growth) relative to untreated control, value ± SE; for % decrease =/− SE TP1: time point 1 (untreated control hyphal growth ≥50%); for % decrease =/− SE TP2: time point 2

Molecule	% decrease =/− SE TP1 [%]	% decrease =/− SE TP2 [%]
GS1806: dsRNA trigger SEQ ID NO 181; gene target Serine/threonine-protein kinase SCH9 (nucleic acid) DNA: GACCAACCACAGCACATTTCAAAGACAAGTACGCCTAATGACCAAAAGTCAACCATCTTAGTATATCCTGTTTCATCTAGGAGAACCTCAGGAGCAAGGTATTCCGTGGTACCACAGAATGTATTTGTCGTCTCATTTTTGGTCAAGTTAGCTTTTGAAAGACCAAAATCACATAAAGCGATATGTCCATTAGCATCGAGCAGAATGTTTTCAGGTTTTAGATCGCGATAAACGATGTCATGTTTGTGAAGGTGCTGGAGAGCCAAAATGAGCTCAGCTATGTAAAATTTTGCTCGCTCTTCACAGAACCTTCCTTCTCTTTGTAAATGCCAAAAAAGTTCGCCTCCAGACATATAATCAGTTACCAAATAGAGATCACTTGGAGTTTGGAATGAAAATTTAAGTCCAACAATGAACTGCGACTCTGCCATAGCTGTTCTGACTAAGATATTTCTTTCGCCAACAGTATGGGCGACCTCTTTCTTTTGTACAATAACCTTTTTCTGAAGGACTTTCATGGCATAAATTCTTCCTGTATCTTTTTTCCTGACTTGATAAACTTGACCAAAAGTTCCTTTTCCTATCAGTTTCAAGAATT	34 ± 7	21 ± 7
GS3457 (nucleic acid) sense: UCAGGCAAGGGUGGAGUGGGUAAAAGUACAUUUACAACACUGCUUGCACAUGCACUUGCAAAAGACCCGGAAAUUGUGGUUGGUGUCAUGGAUACAGAUAUUUGCGGGCCAAGUAUUCCAAAAAUGAUGGGAGUUGAGGAAGAGAUUAUUCACGUCAGUAAUACAGGAUGGAGUCCAGUUUGGGUACUUGAAAAUCUAGCAGUAAUGAGCGUGCAAUUUAUGCUUCCCAACCGAGAUGAUGCAGUUAUUUGGAGAGGACCAAAGAAAAACGGCCUGAUAAAGCAAUUUUUAAAAGAUGUAGAAUGGGGCGAAAUGGAAUAUUUAUUAGUAGACACUCCACCAGGAACAAGUGAUGAACAUUUGAGUGUCAACACUUUUUUGAAAGAGAGUGGAA antisense: UUCCACUCUCUUUCAAAAAAGUGUUGACACUCAAAUGUUCAUCACUUGUUCCUGGUGGAGUGUCUACUAAUAAAUAUUCCAUUUCGCCCCAUUCUACAUCUUUUAAAAAUUGCUUUAUCAGGCCGUUUUUCUUUGGUCCUCUCCAAAUAACUGCAUCAUCUCGGUUGGGAAGCAUAAAUUGCACGCUCAUUACUGCUAGAUUUUCAAGUACCCAAACUGGACUCCAUCCUGUAUUACUGACGUGAAUAAUCUCUUCCUCAACUCCCAUCAUUUUUGGAAUACUUGGCCCGCAAAUAUCUGUAUCCAUGACACCAACCACAAUUUCCGGGUCUUUUGCAAGUGCAUGUGCAAGCAGUGUUGUAAAUGUACUUUUACCCACUCCACCCUUGCCUGA	13 ± 4	
GS3447 (nucleic acid) sense: CAACAGCUUGAAUUGCACGGAAUUAUCACUAUCAUCCCGACUAAGCCUCUCAAAAAGCAAAAUUUAUUUGCUAGCUCGGAAAAGAUAACAGCUAGCUACGCAAAAGCUAUUCAAGAUGGUUGUUGGCAUUCAUUUUCGCCAAACUCUCAGAAAAGCUGCAACAAAUCCCCGUCAUAUAGAAAACAACUCUAAUCAGCCAGAAACUAUGUUGUCCGGAGAAAAUAUUGGGUUACUUACGGGGCGAACAUCAAACGCCCGCAAAAGUGCGUGGCGACAAAUUUACGAUGUACUCGGAAGCAAACAUUAUUCAGCCGGAAAAGAUAGUGAUAGUAAAAUUGUACGAGCUAUAGCGCCAACUAUUCAGAUUACAAAAAUUACGUUAUACAGUAAUUAUGUC antisense: GACAUAAUUACUGUAUAACGUAAUUUUUGUAAUCUGAAUAGUUGGCGCUAUAGCUCGUACAAUUUUACUAUCACUAUCUUUUCCGGCUGAAUAAUGUUUGCUUCCGAGUACAUCGUAAAUUUGUCGCCACGCACUUUUGCGGGCGUUUGAUGUUCGCCCCGUAAGUAACCCAAUAUUUUCUCCGGACAACAUAGUUUCUGGCUGAUUAGAGUUGUUUUCUAUAUGACGGGGAUUUGUUGCAGCUUUUCUGAGAGUUUGGCGAAAAUGAAUGCCAACAACCAUCUUGAAUAGCUUUUGCGUAGCUAGCUGUUAUCUUUUCCGAGCUAGCAAAUAAAUUUUGCUUUUUGAGAGGCUUAGUCGGGAUGAUAGUGAUAAUUCCGUGCAAUUCAAGCUGUUG	35 ± 3	
GS3446 (nucleic acid) sense: ACCCGCAGGUACUCUUAUGCUUGGAGCUGAAGGUAUUAAAGAUGCCAUAACUGGCUUCGAAGAUGCUCGUAAAGUAGAUUUAAAGAAUGAAAGAUUGCCUCCAAGUCUUGAGGAAAUUACACGAACAAGUGAAGAGGAUAGAGCUCUGGCAUUAGAGAGGGCUAAGGAAAGUGCGGAUAAUGAUCGAGGGCUUCAGAUUUUAUCUAGAAGACUCAGUUUAGUUGGCACUCAACCAAAUAGACCGCAACCGAGUAAAAUUCUGAACUCUGUUCUAGCCCUCGAUAAAGAUGUUUCUGAGAAAUAAGAGGUCGAUCAGAGUCACCUCCUGUUACAAGCUCAUUGGUUGGUCUGCAGGUACAGAAUUACUAAUCAUACCACGA antisense: UCGUGGUAUGAUUAGUAAUUCUGUACCUGCAGACCAACCAAUGAGCUUGUAACAGGAGGUGACUCUGAUCGACCUCUUAUUUCUCAGAAACAUCUUUAUCGAGGGCUAGAACAGAGUUCAGAAUUUUACUCGGUUGCGGUCUAUUUGGUUGAGUGCCAACUAAACUGAGUCUUCUAGAUAAAAUCUGAAGCCCUCGAUCAUUAUCCGCACUUUCCUUAGCCCUCUCUAAUGCCAGAGCUCUAUCCUCUUCACUUGUUCGUGUAAUUUCCUCAAGACUUGGAGGCAAUCUUUCAUUCUUUAAAUCUACUUUACGAGCAUCUUCGAAGCCAGUUAUGGCAUCUUUAAUACCUUCAGCUCCAAGCAUAAGAGUACCUGCGGGU	36 ± 3	
GS3448 (nucleic acid) sense: GAAGAUACAAAUUUAUGCGCUAUUCAUGCUAAACGUGUUACUAUAAUGCAAAAAGACAUUCAGCUUGCAAGGCGAAUCAGAGGGGUUUGGGGUGGUUUAGGCUAGCUUUUUUAUUCUAAAUAUACCAGUGCCCGAAUUUGAUCUCCCUAAGCCACACCAUCGAGUUGAAAUGAUGAGAGGAAGAUGACGAGAAUAAAAUUAUUGUGAAUAUUCGUUAUAUGGAUAAGCGUAGAGGGGAUCUAAUACUUGUGAAUUGGUAAUCUUGAGUUAUCACUUUUUCUGGCGCAUCCAGCGACCCUAAGCAUAUGGACACUAGUGAUUGCGUCUUAGGGUUAUAGUAGCCAAGAGGAAUUUGAAGCACACAUAUUAGCACAGCAUAAUAAUAAAUAA antisense: UUAUUUAUUAUUAUGCUGUGCUAAUAUGUGUGCUUCAAAUUCCUCUUGGCUACUAUAACCCUAAGACGCAAUCACUAGUGUCCAUAUGCUUAGGGUCGCUGGAUGCGCCAGAAAAAGUGAUAACUCAAGAUUACCAAUUCACAAGUAUUAGAUCCCCUCUACGCUUAUCCAUAUAACGAAUAUUCACAAUAAUUUUAUUCUCGUCAUCUUCCUCUCAUCAUUUCAACUCGAUGGUGUGGCUUAGGGAGAUCAAAUUCGGGCACUGGUAUAUUUAGAAUAAAAAAGCUAGCCUAAACCACCCCAAACCCCUCUGAUUCGCCUUGCAAGCUGAAUGUCUUUUUGCAUUAUAGUAACACGUUUAGCAUGAAUAGCGCAUAAAUUUGUAUCUUC	19 ± 3	
GS3454 (nucleic acid) sense: GCUCUUCUCAAUGGAUCCCAAGAUGAUCUAAAUAGAAUCGCAGAACACUUUAAGUUGACAAAGUUGAAAGAGCUCUAUGAAAAACAAUGUCAAGUUUUAAAAAGAUUUGAUAGACCCAAUCCUUCUGUUCCAAUAGCCAUAGCACAUUUAUAUCCUCCAGGCCCUAUAAAUCCACAUUACUCAGCAGCUAUGGCACGAGAAGCUGAGAAAAAAAAUUCAAACCCUCUUAAAAACACUGCAACACAAACUAGUUCUAAGGAGGUUGGCUUAAGUACCAUUAGUAAUAAAAAUUCUCUUAUAAAUUCGAGGCGCUCAAAAGGACAAGAUAUGCCAACUCAGGCUAGCAGUUUGGCAGAAAAAUUUAGUCAAAGUAUGAUGGAUCAGGAGCUUGAUGAUGA antisense: UCAUCAUCAAGCUCCUGAUCCAUCAUACUUUGACUAAAUUUUUCUGCCAAACUGCUAGCCUGAGUUGGCAUAUCUUGUCCUUUUGAGCGCCUCGAAUUUAUAAGAGAAUUUUUAUUACUAAUGGUACUUAAGCCAACCUCCUUAGAACUAGUUUGUGUUGCAGUGUUUUUAAGAGGGUUUGAAUUUUUUUUCUCAGCUUCUCGUGCCAUAGCUGCUGAGUAAUGUGGAUUUAUAGGGCCUGGAGGAUAUAAAUGUGCUAUGGCUAUUGGAACAGAAGGAUUGGGUCUAUCAAAUCUUUUUAAAACUUGACAUUGUUUUUCAUAGAGCUCUUUCAACUUUGUCAACUUAAAGUGUUCUGCGAUUCUAUUUAGAUCAUCUUGGGAUCCAUUGAGAAGAGC	4 ± 4	0 ± 9
GS1800: dsRNA trigger SEQ ID NO 137; gene target Protein BOB1 (nucleic acid) DNA: ATCAGTCTGACTGCTATACTCACTACCAGAGTCACTGATTACCTGTCTGTCTCTATCGACAATTCCATGAGGTGATTTTAAATGAGTGATATGTTCGTCAATGACACTTAGAGTTTCATTCATTACAGGGCTATCTTGACGATGATTCTTAATATTAACAGACGAGATACTTTTTGATTGAATCGTTGTTTCAGGACTAGTAATCGTTAAGTTTGACGGAGCCTTGATACCCCGGGGCCCAAGAGTTGGTTGTATTTGAGGAGTATCTAACATTTTGAGAGGTTCTGATGGCAAGGAGACCGTATTTTCACCAGAAAAAGGAGTTTGTGGAGAAACTGTGTTGCTAGTTTTCCTTATTTTGGAATGGGAATTTTGAATGGACGATGATGCTGGCGAGCATATTAAAGATCCTCGGGGAGCTATACGTGTGTATACTTCTGGGAAGAGGCCACTCTTTCCATTTAGCAGATGACGGCCTAAAAACCATCCGTCCCCAAAATCATCATCACGTTCTATCAACTCAACGCGATCTCCTTTGGACAAGCTCAACTCATCTGAGCTACGAGCTGAGAAATCATGAACTACAAGCAAAATATGA	22 ± 6	25 ± 8
